Experiments:
[1] = target: T1, DR52b (Homo sapiens, UniProt P01903+P79483); experiment: DR52b competition binding assay with biotin-labeled HA306-318 peptide; conditions: relative to untagged peptide
T1 construct: made in house; host or cells: D.Mel-2 (Drosophila) cells, pMT/BiP/V5-His A vector, secreted, purified on L243 anti-HLA-DR column
Protocol: (§1) FIG. 16. DR52b binding capacity of His-tagged and untagged ESO peptides and recognition by specific clones. (A) The capacity of His-tagged and untagged ESO peptides to bind to DR52b was assessed in a competition assay with a biotin-labeled HA-derived peptide. ESO and control peptides were incubated overnight at 37° C., at the indicated concentrations, with recombinant empty DR52b protein (5 μg) and biotin-labeled HA306-318 peptide (0.2 μM). The quantity of DR52b molecules containing the biotin-labeled peptide in each test-point was assessed by ELISA using anti-HLA-DR (clone L243) coated plates and alkaline phosphatase-labeled streptavidin. (B) ESO specific clones were incubated with DR52b^+ EBV-B cells and ESO peptides, at the indicated concentrations, and IFN-γ was measured by ELISA in 24 hrs culture supernatants. Results are shown for one clone representative of 3 clones tested.
Because our new approach involves the addition of a His-tag to the ESO peptides, it was important to address the effect of this modification on peptide binding to class II molecules and recognition by specific CD4^+ T cells. With this aim we assessed the relative efficiency of untagged and His-tagged ESO peptides to bind to DR52b using a previously described competition assay (13).

[2] = test system: ESO specific clones; experiment: Recognition of His-tagged and untagged ESO peptides by specific clones with DR52b+ EBV-B cells (IFN-γ ELISA); assay type: cell-based, human; conditions: 24 hrs
Protocol: as §1, with “tested. DR52b^+ ESO-specific CD4^+ T cell clones or polyclonal cultures were stimulated in the absence or presence of ESO peptides (2 μM) or PMA (100 ng/ml) and ionomycin (1 μg/ml), as indicated, and cytokine production was assessed in a standard 4 hrs intracellular cytokine staining assay using mAb specific for IFN-γ, TNF-α, IL-2, IL-4, IL-10 (BD Biosciences) and IL-17 (eBiosciences), as previously described (9, 34). […]” for “tested.”

| effect of His-tag on peptide binding to DR52b [1] | Substance | recognition by specific CD4+ T cells relative to untagged peptide [2] |
| --- | --- | --- |
| did not significantly modify | His-tagged ESO119-143: ESO119-143 extended at the N-terminus by 6 His residues and a linker (Ser-Gly-Ser-Gly) |  |
| did not significantly modify | His-tagged ESO123-137: ESO123-137 extended at the N-terminus by 6 His residues and a linker (Ser-Gly-Ser-Gly) | moderately improved efficiency |

Reference: patent publication US20130029358A1, “IMMUNODOMINANT MHC DR52B RESTRICTED NY-ESO-1 EPITOPES, MHC CLASS II MONOMERS AND MULTIMERS, AND USES THEREOF” (LUDWIG INSTITUTE FOR CANCER RESEARCH LTD., priority 2010, published 2013)
